Among the data in patent EP4700044A1, “PROTEIN ANALOGUE AND USE THEREOF” (Shanghai Duomirui Biotechnology., Ltd., priority 2023, dated 2024) are EC50(nM), dual-luciferase reporter gene assay, iLite FGF21 assay ready cells values, retold here.

Sequence of FGFR1c (P11362 22-822): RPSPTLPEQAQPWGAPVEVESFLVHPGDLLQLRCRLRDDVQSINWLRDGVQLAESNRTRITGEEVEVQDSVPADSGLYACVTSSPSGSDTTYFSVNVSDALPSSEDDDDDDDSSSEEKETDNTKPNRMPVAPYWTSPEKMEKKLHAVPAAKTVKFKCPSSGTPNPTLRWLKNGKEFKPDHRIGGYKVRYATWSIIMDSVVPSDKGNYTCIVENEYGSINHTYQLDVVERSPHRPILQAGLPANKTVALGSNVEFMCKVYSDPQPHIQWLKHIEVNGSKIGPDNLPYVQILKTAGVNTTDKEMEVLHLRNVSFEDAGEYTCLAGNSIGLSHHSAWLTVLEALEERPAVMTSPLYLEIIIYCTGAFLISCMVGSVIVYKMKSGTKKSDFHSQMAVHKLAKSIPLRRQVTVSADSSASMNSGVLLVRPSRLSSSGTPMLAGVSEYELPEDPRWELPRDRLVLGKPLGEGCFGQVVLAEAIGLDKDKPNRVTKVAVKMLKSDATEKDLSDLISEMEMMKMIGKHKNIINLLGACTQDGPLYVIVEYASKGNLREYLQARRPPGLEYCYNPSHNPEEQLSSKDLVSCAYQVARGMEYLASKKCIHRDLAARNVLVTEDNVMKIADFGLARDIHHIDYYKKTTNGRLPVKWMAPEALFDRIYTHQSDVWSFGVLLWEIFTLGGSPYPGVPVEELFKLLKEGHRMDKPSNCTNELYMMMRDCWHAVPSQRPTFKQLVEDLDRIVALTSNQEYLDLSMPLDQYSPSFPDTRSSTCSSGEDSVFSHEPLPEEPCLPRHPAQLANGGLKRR

The assay addresses FGFR1c (UniProt P11362). Kind of assay: cell-based or functional assay.
“Human mature FGF21 fusion protein with a N-terminal PAS15 modification (PAS15FGF21) (from UniProt Q9NSA1 29-209) (ligand)” yielded an EC50(nM), dual-luciferase reporter gene assay, iLite FGF21 assay ready cells of 0.22 nM.
Under “Human mature FGF21 fusion protein with a N-terminal PAS30 modification (PAS30FGF21) (ligand)” stands 0.3 nM.
Under “Human mature FGF21 fusion protein with a N-terminal PAS50 modification (PAS50FGF21) (ligand)” stands 0.4 nM; under “Human mature FGF21 fusion protein with a N-terminal PAS100 modification (PAS100FGF21) (ligand)”, 0.62 nM.
Then “Human mature FGF21 fusion protein with a N-terminal PAS200 modification (PAS200FGF21) (ligand)”, with 1.98 nM.
